Results published in patent publication US20100137566A1.

Experiments:
[1] = target: GST-karyopherin α (karyopherin α expressed as a fusion protein with glutathione S-transferase), immobilized on glutathione Sepharose beads; test: pull-down on GST-karyopherin α beads, PCR; against untreated extract
[2] = target: GST-karyopherin α (karyopherin α expressed as a fusion protein with glutathione S-transferase), immobilized on glutathione Sepharose beads; test: pull-down on GST-karyopherin α beads, PCR
[3] = target: GST-karyopherin α (karyopherin α expressed as a fusion protein with glutathione S-transferase), immobilized on glutathione Sepharose beads; test: pull-down on GST-karyopherin α beads, PCR, Phosphorimager; against untreated lysate

HIV-1NLHX pre-integration complexes that lack Vpr (MA NLS+ Vpr-)
percent reduction of binding in the presence of 1 µM CNI-H0294 (small molecule) [1]: 95%

HIV-1NLHX pre-integration complexes with mutated MA NLS (MA NLS- Vpr+)
binding as percent of that of MA NLS+ complexes (% of MA NLS+ complexes) [2]: 1 to 5

HIV-1RF pre-integration complexes
fold reduction of binding in the presence of 0.1 µM CNI-H0294 (small molecule) [3]: 8 fold | fold reduction of binding in the presence of 1 µM CNI-H0294 (small molecule) [3]: 25 fold

wild-type HIV-1NLHX pre-integration complexes
percent reduction of binding in the presence of 1 µM CNI-H0294 (small molecule) [1]: 95%
